Experimental data from US20220332804A1 (CSL INNOVATION, published 2022).
Residue numbers refer to the chain shown, from its start.

Experiments:
Assay in all cases: SPR, antibody captured, C2 as analyte;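 note: biacore SPR at 37 °C, anti-C2 mAbs captured via goat anti-human IgG on CM5 chips, double-referenced sensorgrams fit to a 1:1 kinetic or steady-state model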
human C2 A326S = target: T1, human C2 A326S (human, UniProt P06681 21-752)
T1 sequence: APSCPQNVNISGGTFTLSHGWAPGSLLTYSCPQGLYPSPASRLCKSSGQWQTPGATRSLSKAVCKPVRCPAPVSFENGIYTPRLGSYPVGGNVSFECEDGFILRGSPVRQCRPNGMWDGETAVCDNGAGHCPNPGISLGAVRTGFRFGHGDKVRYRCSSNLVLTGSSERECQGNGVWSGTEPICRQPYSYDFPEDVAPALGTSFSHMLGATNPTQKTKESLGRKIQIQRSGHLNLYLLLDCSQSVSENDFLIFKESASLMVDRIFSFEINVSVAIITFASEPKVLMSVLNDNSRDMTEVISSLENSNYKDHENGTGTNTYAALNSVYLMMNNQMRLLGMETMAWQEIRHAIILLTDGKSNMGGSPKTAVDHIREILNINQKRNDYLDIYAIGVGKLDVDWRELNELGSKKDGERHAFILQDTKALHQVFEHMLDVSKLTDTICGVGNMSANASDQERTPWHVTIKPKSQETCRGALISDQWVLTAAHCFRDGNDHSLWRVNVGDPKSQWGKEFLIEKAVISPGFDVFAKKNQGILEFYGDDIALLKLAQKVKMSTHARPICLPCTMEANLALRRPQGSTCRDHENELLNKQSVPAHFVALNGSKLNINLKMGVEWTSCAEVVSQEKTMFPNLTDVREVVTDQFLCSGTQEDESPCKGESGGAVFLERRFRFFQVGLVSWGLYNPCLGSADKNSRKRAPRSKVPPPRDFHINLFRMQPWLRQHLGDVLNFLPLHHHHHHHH

human C2 D441A = target: T2, human C2 D441A (human, UniProt P06681 21-752)
T2 sequence: T1 sequence with S306A, D421A

human C2 V418A = target: T3, human C2 V418A (human, UniProt P06681 21-752)
T3 sequence: T1 sequence with S306A, V398A

human C2 P723A = target: T4, human C2 P723A (human, UniProt P06681 21-752)
T4 sequence: T1 sequence with S306A, P703A

B1: RF16-226 (antibody, human IgG4 S228P, lambda)
heavy: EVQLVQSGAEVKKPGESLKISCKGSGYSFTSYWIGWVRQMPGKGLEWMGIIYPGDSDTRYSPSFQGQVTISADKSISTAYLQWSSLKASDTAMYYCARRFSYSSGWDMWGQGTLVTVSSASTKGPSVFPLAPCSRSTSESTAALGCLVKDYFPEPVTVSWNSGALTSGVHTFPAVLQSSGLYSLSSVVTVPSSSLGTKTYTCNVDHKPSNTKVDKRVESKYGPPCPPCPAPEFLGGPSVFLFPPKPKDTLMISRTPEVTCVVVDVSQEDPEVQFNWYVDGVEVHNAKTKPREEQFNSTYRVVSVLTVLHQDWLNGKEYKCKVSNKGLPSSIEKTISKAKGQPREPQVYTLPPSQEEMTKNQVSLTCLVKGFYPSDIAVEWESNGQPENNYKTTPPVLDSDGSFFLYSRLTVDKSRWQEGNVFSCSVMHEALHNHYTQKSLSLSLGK
light: SYELTQPPSVSVSPGQTARITCSGDALTSKYVAWYQQKSGLAPLLVIYEDTRRPSGIPAKFSGSSSGSVATLTISGAHGDDEADYYCYSTDASGHQRVFGGGTKLTVLSQPKAAPSVTLFPPSSEELQANKATLVCLISDFYPGAVTVAWKADGSPVKAGVETTKPSKQSNNKYAASSYLSLTPEQWKSHRSYSCQVTHEGSTVEKTVAPTECS
notes: pH-dependent anti-C2 antibody from a phage display library; also called WT
B1 was tested, and the Kd (human C2 A326S) was 13.2 nM, the Kd (human C2 D441A) was 63.9 nM and the Kd (human C2 V418A) was 8 nM. For the same binder, the Kd (human C2 P723A) was 122 nM.
